Assay results published in patent publication US20260055369A1, “METHOD FOR GENERATING CELLS OF THE T CELL LINEAGE WITH ENGINEERING BROADLY REACTIVE HUMAN NOTCH LIGAND” (H. Lee Moffitt Cancer Center and Research Institute, Inc., priority 2022, published 2026).
Residue numbers refer to the chain shown, from its start.

B1: Delta^MAX: engineered human DLL4 consensus variant with 10 mutations combining DLL4.v1 and DLL4.v2 mutations; sequence matches SEQ ID NO: 4/10 (protein)
chain: SSVFQLQLQEFINERGVLASGRPCEPGCRTFFRVCLKHFQAVVSPGPCTFGTVSTPVLGTNSFAVRDDSSGGGRNPLQLPLNFTWPGTFSLIIEAWHAPGDDLRPEALPPDALISKFAIQGSLAVGQNWLLDEQTSTLTRLRYSYRVICSDNYYGDNCSRLCKKRNDYFGHYVCQPDGNPSCLPGWTGEYCQQPICLSGCHEQNGYCSKPAECLCRPGWQGRLCNECIPHPGCRHGTCSTPWQCLCDEGWGGLYCDQDLNYCTHHSPCKNGATCRNSGPRSYTCTCRPGYTGVDCELELSECDSNPCRNGGSCKDQEDGYHCLCPPGYYGLHCEHSTLSCADSPCFNGGSCRERNQGANYACECPPNFTGSNCE
B2: WT DLL4: human wild-type Delta-like 4 (N-EGF5, residues 27-400), SEQ ID NO: 1 (protein)
chain: B1 chain with S2G, L81F, F117I, Y168H, P180L, P231N, L245T, Y254F, R275S, P279Q

Experiments:
Notch1 = assay: Notch activation assay with ligands non-specifically adsorbed to plates (CHO-K1 N1-Gal4 fluorescent reporter); format: cell-based; settings: for EC50 for Notch1 activation: non-specifically adsorbed to tissue culture plates, 24 hours
Notch1, sequence (P46531 19-1664 limits assumed): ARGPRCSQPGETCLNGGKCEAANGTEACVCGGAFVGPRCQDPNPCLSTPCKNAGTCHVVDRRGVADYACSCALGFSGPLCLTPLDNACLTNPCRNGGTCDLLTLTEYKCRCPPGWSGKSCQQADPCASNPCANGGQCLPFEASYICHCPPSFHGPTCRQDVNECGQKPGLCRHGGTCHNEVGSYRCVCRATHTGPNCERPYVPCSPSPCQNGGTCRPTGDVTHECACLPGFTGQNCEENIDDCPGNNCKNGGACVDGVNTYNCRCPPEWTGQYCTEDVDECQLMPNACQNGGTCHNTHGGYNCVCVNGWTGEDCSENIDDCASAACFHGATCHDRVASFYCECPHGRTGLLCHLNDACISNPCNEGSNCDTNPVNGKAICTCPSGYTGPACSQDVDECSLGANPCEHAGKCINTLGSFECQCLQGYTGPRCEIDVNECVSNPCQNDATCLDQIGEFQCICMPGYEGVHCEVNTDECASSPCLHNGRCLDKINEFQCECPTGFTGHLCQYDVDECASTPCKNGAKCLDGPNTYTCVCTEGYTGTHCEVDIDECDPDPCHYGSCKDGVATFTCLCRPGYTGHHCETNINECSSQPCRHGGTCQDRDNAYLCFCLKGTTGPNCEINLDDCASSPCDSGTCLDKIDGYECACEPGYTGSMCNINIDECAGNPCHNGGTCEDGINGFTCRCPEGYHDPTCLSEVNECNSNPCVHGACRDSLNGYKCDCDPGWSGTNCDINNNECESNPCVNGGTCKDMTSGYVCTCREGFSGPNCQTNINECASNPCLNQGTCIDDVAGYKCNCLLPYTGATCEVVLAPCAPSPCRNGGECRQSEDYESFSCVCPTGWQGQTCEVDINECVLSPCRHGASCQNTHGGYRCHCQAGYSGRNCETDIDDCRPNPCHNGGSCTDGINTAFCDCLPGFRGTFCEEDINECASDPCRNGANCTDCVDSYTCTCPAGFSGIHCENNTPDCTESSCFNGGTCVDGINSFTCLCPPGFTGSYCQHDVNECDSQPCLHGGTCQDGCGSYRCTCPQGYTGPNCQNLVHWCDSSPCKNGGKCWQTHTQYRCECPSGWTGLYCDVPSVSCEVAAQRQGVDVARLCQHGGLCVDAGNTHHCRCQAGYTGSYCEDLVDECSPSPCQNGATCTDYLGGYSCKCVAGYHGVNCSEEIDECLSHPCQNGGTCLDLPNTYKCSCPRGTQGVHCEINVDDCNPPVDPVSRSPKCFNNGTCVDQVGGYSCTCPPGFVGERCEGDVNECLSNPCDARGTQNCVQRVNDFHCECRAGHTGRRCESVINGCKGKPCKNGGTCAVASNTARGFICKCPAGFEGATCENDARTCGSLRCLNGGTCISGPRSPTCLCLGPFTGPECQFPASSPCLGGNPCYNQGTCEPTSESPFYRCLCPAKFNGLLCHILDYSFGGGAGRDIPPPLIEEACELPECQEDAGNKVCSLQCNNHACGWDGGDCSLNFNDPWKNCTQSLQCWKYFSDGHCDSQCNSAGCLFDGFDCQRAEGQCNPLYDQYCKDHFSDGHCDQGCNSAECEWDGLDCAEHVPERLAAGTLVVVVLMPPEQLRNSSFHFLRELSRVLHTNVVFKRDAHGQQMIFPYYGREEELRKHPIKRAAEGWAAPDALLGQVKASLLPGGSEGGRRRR
Notch1, sequence (P46531 1665-1756 limits assumed): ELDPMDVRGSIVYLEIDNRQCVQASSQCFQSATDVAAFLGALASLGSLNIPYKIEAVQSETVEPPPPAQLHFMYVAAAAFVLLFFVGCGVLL
Protocol: On day one, 2-fold serial dilutions of non-biotinylated DLL4 recombinant proteins (N-EGF5) were prepared in 100 μL of DPBS and used to coat 96-well plates (Coastar) for 1 hour at 37° C. WT DLL4 started at 66.56 ng/mm^2 and Delta^MAX at 0.33 ng/mm^2. Then, the wells were washed three times with 200 μL of DPBS to remove unbound proteins. Next, CHO-K1 N1-Gal4 cells in culture were detached with trypsin-EDTA 0.25% (Gibco) and manually counted. Appropriate dilutions were prepared in α-MEM media to ensure 30,000 CHO-K1 N1-Gal4 cells per well in 200 μL. Ligand-coated plates and reporter cell lines were incubated for 24 hours at 37° C. and 5% CO2. On day two, CHO-K1 N1-Gal4 cells were washed with 200 μL DPBS, detached with 30 μL of trypsin-EDTA 0.25%, and quenched with 200 μL of α-MEM media. Finally, cells were resuspended and H2B-mCitrine signal was measured by flow cytometry (BD Accuri C6 plus). CHO-K1 N1-Gal4 and ligand-lacking wells were used as a negative control. The measurements represent the mean fluorescent intensity as percentage of Notch activation±s.d. of three biological replicates. Notch activation was reference-subtracted from a well coated with 0.5% BSA containing CHO-K1 N1-Gal4 cells. Gating strategies for this experiment are detailed in FIG. 13A.

Notch3 = assay: Notch inhibition assay in co-culture format (U2OS Notch3 reporter with HEK293T expressing DLL4, DLL1, JAG1 or JAG2); format: cell-based, human; settings: 3 μM soluble protein; signaling by DLL1, DLL4, JAG1 and JAG2 expressing HEK293T cells
Notch3, sequence (Q9UM47 197-505 limits assumed): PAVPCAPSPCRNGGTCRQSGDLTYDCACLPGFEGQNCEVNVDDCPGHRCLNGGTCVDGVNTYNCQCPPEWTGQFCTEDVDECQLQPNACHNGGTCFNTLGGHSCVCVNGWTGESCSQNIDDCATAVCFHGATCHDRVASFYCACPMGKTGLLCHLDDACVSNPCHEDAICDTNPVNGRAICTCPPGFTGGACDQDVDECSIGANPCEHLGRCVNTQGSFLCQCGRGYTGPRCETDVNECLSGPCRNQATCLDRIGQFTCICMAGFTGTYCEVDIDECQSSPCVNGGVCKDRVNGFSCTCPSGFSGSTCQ
Protocol: For inhibition of Notch ligand-expressing cell lines, on day one, U2OS Notch3 reporter cells (signal receivers) were detached with trypsin-EDTA, washed with DPBS, and added to 6-well plates. On day two, U2OS cells were transfected as described above. On day three, signal receiver cells were detached with trypsin-EDTA, and dilutions of 400,000 cells/mL were prepared in DMEM. On the one hand, soluble DLL4 variants were prepared at 6,000 nM in DPBS, combined in 1:1 dilution with signal receiver cells, and incubated for 15 min at RT. On the other hand, HEK293T-expressing WT DLL4, DLL1, JAG1, JAG2 were detached with trypsin-EDTA, washed with DPBS and 200,000 cells/mL stocks prepared in DMEM. One hundred microliters of both signal senders and pre-blocked signal receivers were combined in cell ratio 1:1 and incubated for 24 hours at 37° C., and 5% CO2. On day four, luciferase firefly and Renilla signals were determined with Dual-Glo luciferase assay system (Promega) using a GloMax luminometer (Promega). Doxycycline at 2 μg/mL was kept for all the conditions. A luminescence ratio firefly:Renilla was determined for every well. Notch activation of each Notch3:ligand pair was normalized to the signal of Notch3 reporters in the presence of HEK293T lacking ligands. Each Notch signaling pair was set at 100% activation and soluble DLL4 treatments were relative to its corresponding pair. […]

[1] = system: hPSC-derived neural progenitors; assay: Differentiation of hPSC-derived neural progenitors into neurons (qPCR markers); format: cell-based, human; settings: for neural progenitor marker SOX2 expression / neuronal markers (MAPT, SNAP25, DCX, VGLUT2, TBR1) expression: soluble protein 10, 100, 1,000 nM, day 8-14, qPCR
Protocol: Neural differentiation of hPSCs was performed in two separate phases over 14 days. In the first phase, to differentiate hPSCs into neural progenitors for 7 days, a modification of a previously-reported method was used. However, in this study, differentiation conducted in Chemically Defined Media 2 (CDM2) media, whose composition has been described previously: 50% IMDM+GlutaMAX (Thermo Fisher)+50% F12+GlutaMAX (Thermo Fisher)+1 mg/mL polyvinyl alcohol (Sigma)+1% v/v chemically defined lipid concentrate (Thermo Fisher)+450 μM 1-thioglycerol (Sigma)+0.7 μg/mL recombinant human insulin (Sigma)+15 μg/mL human transferrin (Sigma)+1% v/v penicillin/streptomycin (Thermo Fisher). To create CDM2, polyvinyl alcohol was brought into suspension by gentle warming and magnetic stirring, and the media was sterilely filtered (through a 0.22 μm filter) prior to use. Throughout the first 7 days, differentiation media was changed every 24 hours. The second phase was to differentiate hPSC-derived neural progenitors into neurons for 7 days, from the day 8-14 interval. Neuronal differentiation media was modified from a previously-reported method^9. From day 8-14, cells were differentiated in BDNF (20 ng/ml, PeproTech), GDNF (20 ng/ml, PeproTech), Forskolin (10 μM, Tocris), 2-Phospho-L-ascorbic acid (0.2 mM, Sigma-Aldrich), with the basal media compositions varying depending on the day of differentiation. On day 8, 25% Neurobasal media+75% CDM2 media was used; on day 9, 50% Neurobasal media+50% CDM2 media was used; on day 10, 75% Neurobasal media+25% CDM2 media was used; on days 11-14, 100% Neurobasal media was used. The composition of Neurobasal media was: Neurobasal basal media (Thermo Fisher)+1% v/v N2 (Thermo Fisher)+2% v/v B27 (Thermo Fisher)+1% v/v penicillin/streptomycin (Thermo Fisher), which was filtered through a sterilizing 0.22 μM filter before use. In summary, starting on day 8 of differentiation, Neurobasal media was added in an increasing ¼th increment on a daily basis. However, to emphasize, throughout the entire day 8-14 interval, cells were exposed to the same concentration of neuronal differentiation signals (BDNF, GDNF, Forskolin and 2-Phospho-L-ascorbic acid), although different basal medias were used on different days.
To test the effect of Notch signaling on neuronal differentiation, starting on day 8, hPSC-derived neural progenitors were treated with the aforementioned neuronal differentiation signals in the presence or absence of soluble Delta^MAX (0-1,000 nM), soluble wild-type DLL4 (0-1,000 nM), or DAPT (10,000 nM, Tocris).
After differentiation of hPSCs into neurons as described above, gene expression was analyzed using RNA extraction, reverse transcription, and quantitative PCR (qPCR) as previously described. First, cells were lysed with RNeasy Lysis Buffer (Qiagen) and stored at −20° C. Cell lysates were then thawed, and RNA was extracted using the RNeasy Mini Plus Kit (Qiagen) as per the manufacturer's instructions and dissolved in H2O. Next, 300 ng of RNA was reverse transcribed into complementary DNA (cDNA) using the High-Capacity cDNA Reverse Transcription Kit (Applied Biosystems) according to the manufacturer's protocol. Total cDNA was diluted 1:20 in H2O and qPCR was performed with the SensiFAST SYBR Lo-ROX Kit (Bioline) using 10 μL qPCR reactions per well in a 384-well plate. Each individual reaction contained 5.0 μL 2× SensiFAST SYBR qPCR Master Mix+4.6 μL cDNA+0.4 μL of 10 μM primer stock (5 μM forward+5 μM reverse primers). […]

| Molecule | Emax greater than that induced by WT DLL4 (Notch1; non-specific adsorption) | EC50 for Notch1 activation (Notch1) | improvement in Notch activation efficiency vs WT DLL4 (Notch1; ratio of EC50, non-specific adsorption) | reduction in reporter signal (Notch3) | neuronal differentiation compared with 10 μM of DAPT ([1]; 1 μM soluble protein) | neural progenitor marker SOX2 expression [1] | neuronal markers (MAPT, SNAP25, DCX, VGLUT2, TBR1) expression [1] |
| --- | --- | --- | --- | --- | --- | --- | --- |
| B1 | 20% | 0.009 ng/mm^2 | 250 fold | 70-85% | comparable to, if not superior to | repressed | sharply increased |
| B2 |  | 2.3 ng/mm^2 |  | 10-40% |  | failed to upregulate neuronal markers or to repress neural progenitor markers | failed to upregulate neuronal markers |
